Source: patent publication US12427210B2, “Compounds comprising a fibroblast activation protein ligand and use thereof” (priority 2019, dated 2025)

How the values were obtained:
[1] = target: Acetylcholinesterase (h) (human) (UniProt P22303)
[2] = target: COX1(h) (human) (UniProt P23219)
[3] = target: T1, COX2(h) (human) (UniProt P35354)
T1 sequence: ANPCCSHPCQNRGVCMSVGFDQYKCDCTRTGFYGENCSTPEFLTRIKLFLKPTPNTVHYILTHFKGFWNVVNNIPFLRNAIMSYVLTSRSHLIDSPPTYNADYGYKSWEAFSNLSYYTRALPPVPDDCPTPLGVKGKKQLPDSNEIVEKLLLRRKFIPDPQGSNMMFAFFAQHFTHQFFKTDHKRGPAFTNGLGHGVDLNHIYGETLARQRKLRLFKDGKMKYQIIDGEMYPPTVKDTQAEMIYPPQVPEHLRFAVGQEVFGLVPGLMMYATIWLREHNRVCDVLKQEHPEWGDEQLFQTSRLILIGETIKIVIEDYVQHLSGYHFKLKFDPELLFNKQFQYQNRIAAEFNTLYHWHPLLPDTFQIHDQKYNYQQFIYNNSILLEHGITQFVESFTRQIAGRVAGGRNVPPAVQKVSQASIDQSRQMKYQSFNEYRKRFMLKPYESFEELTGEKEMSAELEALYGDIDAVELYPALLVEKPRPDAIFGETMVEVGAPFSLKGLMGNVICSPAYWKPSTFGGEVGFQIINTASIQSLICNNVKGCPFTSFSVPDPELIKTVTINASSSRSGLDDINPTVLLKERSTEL

[4] = target: Lck kinase (h) (human) (UniProt P06239)
[5] = target: PDE3A (h) (human) (UniProt Q14432)
[6] = target: PDE4D2 (h) (human) (UniProt Q08499)
[7] = target: Ataxin3 (Homo sapiens (Human)) (UniProt P54252)
[8] = target: Beta secretase (Homo sapiens (Human)) (UniProt P56817)
[9] = target: T2, Caspase-3 (Homo sapiens (Human)) (UniProt P42574)
T2 sequence: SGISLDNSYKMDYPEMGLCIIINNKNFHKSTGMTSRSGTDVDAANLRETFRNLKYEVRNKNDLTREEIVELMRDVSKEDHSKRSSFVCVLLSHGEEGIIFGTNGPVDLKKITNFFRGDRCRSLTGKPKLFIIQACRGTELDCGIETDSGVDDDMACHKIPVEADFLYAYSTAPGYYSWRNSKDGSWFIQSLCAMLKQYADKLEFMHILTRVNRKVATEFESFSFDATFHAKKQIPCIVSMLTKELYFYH

[10] = target: T3, Caspase-6 (Homo sapiens (Human)) (UniProt P55212)
T3 sequence: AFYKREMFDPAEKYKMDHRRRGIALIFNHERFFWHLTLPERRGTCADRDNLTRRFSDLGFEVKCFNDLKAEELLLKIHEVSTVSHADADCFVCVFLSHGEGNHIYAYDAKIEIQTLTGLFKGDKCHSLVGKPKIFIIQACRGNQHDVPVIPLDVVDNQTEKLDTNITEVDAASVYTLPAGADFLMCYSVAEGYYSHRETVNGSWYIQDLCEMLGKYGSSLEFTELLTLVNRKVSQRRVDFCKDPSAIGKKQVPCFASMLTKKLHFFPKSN

[11] = target: T4, Caspase-7 (Homo sapiens (Human)) (UniProt P55210)
T4 sequence: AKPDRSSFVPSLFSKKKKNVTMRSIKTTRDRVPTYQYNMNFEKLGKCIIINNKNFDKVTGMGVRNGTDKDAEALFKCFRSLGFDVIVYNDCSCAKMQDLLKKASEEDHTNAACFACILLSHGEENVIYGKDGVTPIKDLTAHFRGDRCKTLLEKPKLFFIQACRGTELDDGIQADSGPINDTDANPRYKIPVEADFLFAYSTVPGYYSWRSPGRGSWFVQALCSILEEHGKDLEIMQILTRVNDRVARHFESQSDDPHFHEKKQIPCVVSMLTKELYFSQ

[12] = target: Caspase-9 (Homo sapiens (Human)) (UniProt P55211)
[13] = target: Cathepsin B (Homo sapiens (Human)) (UniProt P07858)
[14] = target: Cathepsin L (Homo sapiens (Human)) (UniProt P07711)
[15] = target: Cathepsin S (Homo sapiens (Human)) (UniProt P25774)
[16] = target: DPP7 (Homo sapiens (Human)) (UniProt Q9UHL4)
[17] = target: DPP9 (Homo sapiens (Human)) (UniProt Q86TI2)
[18] = target: Matrix metalloprotease 2 (Homo sapiens (Human)) (UniProt P08253)
[19] = target: T5, Ubiquitin carboxy-terminal hydrolase L3 (Homo sapiens (Human)) (UniProt P15374)
T5 sequence: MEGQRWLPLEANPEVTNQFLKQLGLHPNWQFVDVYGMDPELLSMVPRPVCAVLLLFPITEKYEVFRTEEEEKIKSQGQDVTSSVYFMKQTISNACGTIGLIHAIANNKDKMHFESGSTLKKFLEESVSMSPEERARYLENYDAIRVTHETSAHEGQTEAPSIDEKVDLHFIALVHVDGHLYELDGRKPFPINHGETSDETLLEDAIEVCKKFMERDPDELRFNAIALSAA

[20] = target: Ubiquitin carboxyl-terminal hydrolase 10 (Homo sapiens (Human)) (UniProt Q14694)
[21] = target: Ubiquitin carboxyl-terminal hydrolase 5 (Homo sapiens (Human)) (UniProt P45974)
[22] = target: serine protease NS3 (a.a. 3-181) from Hepatitis C virus genotype 1b (Hepatitis C virus genotype 1b)
[23] = target: serine protease NS3 (a.a. 3-181) from Hepatitis C virus genotype 1b (mutant R155K) (Hepatitis C virus genotype 1b)
[24] = target: serine protease NS3 (a.a. 3-181) from Hepatitis C virus genotype 2a (Hepatitis C virus genotype 2a)
[25] = target: BZD (central); assay: radioligand displacement, compound at 10 µM
[26] = target: Ca2+ channel (L, dihydropyridine site); assay: radioligand displacement, compound at 10 µM
[27] = target: KV channel; assay: radioligand displacement, compound at 10 µM
[28] = target: MAO-A; assay: radioligand displacement, compound at 10 µM
[29] = target: NMDA; assay: radioligand displacement, compound at 10 µM
[30] = target: Na+ channel (site 2); assay: radioligand displacement, compound at 10 µM

Chain of COX1(h) (human) (P23219 24-599 limits assumed): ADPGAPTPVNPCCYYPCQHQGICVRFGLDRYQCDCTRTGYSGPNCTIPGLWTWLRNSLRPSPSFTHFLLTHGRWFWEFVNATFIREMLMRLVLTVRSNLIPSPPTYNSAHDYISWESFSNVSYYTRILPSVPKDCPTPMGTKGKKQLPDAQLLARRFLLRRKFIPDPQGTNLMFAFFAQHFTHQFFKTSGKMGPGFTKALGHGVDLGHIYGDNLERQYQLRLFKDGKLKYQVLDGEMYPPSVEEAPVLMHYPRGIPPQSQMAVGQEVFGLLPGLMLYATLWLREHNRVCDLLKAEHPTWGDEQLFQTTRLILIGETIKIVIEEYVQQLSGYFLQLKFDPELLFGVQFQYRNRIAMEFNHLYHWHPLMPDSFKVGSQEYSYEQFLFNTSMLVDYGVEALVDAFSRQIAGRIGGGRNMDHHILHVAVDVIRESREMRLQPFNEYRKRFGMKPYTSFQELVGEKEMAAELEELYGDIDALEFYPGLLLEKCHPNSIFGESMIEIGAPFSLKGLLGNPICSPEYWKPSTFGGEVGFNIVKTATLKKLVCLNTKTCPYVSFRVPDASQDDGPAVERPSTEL
Chain of Ubiquitin carboxyl-terminal hydrolase 10 (Homo sapiens (Human)) (Q14694 whole entry): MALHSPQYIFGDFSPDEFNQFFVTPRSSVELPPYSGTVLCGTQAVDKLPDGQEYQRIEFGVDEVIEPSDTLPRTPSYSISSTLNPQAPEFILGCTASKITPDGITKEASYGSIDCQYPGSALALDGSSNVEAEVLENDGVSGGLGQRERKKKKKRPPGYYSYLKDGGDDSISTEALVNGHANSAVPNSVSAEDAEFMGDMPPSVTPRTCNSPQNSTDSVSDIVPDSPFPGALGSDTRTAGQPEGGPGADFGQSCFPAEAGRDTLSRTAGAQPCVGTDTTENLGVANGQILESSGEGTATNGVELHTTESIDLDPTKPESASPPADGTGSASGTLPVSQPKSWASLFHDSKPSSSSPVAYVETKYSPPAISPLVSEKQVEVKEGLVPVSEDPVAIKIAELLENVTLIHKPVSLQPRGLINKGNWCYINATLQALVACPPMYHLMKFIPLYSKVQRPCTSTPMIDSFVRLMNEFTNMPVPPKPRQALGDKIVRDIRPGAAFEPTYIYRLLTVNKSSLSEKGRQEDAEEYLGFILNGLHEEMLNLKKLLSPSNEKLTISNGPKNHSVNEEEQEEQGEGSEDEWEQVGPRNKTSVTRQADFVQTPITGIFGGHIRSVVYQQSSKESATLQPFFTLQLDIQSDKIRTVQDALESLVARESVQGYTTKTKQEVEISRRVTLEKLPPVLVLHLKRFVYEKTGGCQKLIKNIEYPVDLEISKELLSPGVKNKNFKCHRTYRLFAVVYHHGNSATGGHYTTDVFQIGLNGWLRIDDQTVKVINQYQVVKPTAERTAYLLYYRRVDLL
Chain of Acetylcholinesterase (h) (human) (P22303 32-614 limits assumed): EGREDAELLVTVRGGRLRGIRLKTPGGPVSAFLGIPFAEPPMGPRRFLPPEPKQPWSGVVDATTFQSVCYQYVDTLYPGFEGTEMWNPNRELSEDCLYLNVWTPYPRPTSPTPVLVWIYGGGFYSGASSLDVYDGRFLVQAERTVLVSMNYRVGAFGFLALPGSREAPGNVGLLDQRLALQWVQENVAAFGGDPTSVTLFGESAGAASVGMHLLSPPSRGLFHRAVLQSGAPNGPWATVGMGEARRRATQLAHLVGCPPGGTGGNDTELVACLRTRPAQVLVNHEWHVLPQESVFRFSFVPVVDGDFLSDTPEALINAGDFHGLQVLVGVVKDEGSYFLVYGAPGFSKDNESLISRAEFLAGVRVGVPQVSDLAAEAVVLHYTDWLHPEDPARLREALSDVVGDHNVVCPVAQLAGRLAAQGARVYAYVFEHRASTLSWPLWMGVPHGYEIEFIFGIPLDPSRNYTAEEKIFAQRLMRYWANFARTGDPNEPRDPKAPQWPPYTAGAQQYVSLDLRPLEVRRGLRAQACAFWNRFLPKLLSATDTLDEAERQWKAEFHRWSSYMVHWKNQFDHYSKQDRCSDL
Chain of Matrix metalloprotease 2 (Homo sapiens (Human)) (P08253 110-660): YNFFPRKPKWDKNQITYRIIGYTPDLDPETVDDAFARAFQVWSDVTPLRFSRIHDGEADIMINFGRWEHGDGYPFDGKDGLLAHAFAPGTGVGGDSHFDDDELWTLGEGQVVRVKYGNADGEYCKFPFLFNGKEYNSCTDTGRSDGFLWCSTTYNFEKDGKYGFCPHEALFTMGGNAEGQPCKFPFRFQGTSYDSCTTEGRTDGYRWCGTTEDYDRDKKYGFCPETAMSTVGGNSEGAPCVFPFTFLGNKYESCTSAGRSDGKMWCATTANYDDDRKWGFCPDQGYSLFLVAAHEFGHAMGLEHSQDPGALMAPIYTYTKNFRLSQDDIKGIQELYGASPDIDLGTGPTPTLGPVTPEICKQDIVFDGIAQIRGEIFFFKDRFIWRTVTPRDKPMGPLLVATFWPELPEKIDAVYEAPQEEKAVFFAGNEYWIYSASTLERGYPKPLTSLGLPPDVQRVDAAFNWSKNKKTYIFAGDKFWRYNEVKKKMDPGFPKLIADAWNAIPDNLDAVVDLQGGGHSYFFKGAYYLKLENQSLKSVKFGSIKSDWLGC
Chain of PDE4D2 (h) (human) (Q08499 303-809): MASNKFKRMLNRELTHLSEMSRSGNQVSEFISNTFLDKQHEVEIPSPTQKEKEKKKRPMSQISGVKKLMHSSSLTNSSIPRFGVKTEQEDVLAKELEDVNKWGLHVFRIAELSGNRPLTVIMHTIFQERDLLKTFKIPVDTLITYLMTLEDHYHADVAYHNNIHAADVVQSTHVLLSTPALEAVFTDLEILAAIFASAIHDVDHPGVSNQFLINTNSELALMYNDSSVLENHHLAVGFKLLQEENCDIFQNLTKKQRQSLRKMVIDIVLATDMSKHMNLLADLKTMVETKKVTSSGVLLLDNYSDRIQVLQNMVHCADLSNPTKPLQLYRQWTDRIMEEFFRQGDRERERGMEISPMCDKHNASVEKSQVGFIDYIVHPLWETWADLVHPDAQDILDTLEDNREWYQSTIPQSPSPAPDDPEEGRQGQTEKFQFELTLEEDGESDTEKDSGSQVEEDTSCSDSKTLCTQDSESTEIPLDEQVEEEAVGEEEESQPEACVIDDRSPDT
Chain of Ataxin3 (Homo sapiens (Human)) (P54252 whole entry): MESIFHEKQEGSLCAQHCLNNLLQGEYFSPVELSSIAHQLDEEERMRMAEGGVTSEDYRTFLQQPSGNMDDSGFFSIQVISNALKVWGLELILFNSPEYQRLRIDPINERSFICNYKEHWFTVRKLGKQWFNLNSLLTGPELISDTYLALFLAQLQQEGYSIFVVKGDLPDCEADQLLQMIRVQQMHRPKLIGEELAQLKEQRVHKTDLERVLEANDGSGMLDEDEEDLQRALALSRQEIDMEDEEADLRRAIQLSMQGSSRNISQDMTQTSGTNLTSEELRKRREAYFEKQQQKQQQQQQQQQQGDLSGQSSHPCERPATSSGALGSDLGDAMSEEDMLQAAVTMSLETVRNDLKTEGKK
Chain of Caspase-9 (Homo sapiens (Human)) (P55211 whole entry): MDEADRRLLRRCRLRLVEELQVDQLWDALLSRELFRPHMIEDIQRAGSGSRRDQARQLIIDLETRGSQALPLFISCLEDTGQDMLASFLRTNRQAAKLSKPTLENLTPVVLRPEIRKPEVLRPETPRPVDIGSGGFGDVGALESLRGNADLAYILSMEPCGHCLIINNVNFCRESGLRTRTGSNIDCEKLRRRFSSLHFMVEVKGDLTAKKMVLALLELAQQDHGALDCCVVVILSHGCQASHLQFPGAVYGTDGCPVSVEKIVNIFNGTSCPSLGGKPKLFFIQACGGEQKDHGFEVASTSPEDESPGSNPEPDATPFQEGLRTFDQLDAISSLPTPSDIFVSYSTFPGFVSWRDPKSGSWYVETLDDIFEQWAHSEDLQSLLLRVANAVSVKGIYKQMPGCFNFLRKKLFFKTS
Chain of Ubiquitin carboxyl-terminal hydrolase 5 (Homo sapiens (Human)) (P45974 whole entry): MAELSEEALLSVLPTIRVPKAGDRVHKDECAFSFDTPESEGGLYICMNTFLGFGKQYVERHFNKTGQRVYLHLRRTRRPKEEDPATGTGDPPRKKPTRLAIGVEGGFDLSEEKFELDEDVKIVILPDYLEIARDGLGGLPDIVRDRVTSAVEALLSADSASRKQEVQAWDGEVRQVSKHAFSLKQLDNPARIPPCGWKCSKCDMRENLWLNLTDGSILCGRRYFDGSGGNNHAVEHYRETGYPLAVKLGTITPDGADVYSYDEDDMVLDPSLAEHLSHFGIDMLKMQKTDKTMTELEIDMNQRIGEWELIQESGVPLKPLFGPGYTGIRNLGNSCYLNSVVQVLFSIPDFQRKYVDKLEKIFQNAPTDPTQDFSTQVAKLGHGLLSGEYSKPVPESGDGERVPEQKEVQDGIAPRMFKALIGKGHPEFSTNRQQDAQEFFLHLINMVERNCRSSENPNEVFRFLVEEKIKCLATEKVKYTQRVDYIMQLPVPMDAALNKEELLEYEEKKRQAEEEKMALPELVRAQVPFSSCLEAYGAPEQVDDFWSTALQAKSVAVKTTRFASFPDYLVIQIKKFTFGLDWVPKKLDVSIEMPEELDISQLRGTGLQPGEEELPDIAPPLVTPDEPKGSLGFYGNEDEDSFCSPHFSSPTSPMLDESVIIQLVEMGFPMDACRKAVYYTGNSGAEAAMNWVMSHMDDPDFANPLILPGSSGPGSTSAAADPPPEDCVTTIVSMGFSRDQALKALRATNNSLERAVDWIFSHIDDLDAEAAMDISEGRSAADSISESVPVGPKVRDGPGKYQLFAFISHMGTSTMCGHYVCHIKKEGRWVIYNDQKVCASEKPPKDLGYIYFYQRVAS

For “Hex-[Cys(tMeBn(DOTA-AET))-Pro-Pro-Thr-Gln-Phe-Cys]-OH (3BP-3554) (peptide)”, which % inhibition of control enzyme activity [1] is on record?
Its % inhibition of control enzyme activity is 1 % at 10 µM.

What about the % inhibition of control enzyme activity [2] of the same substance?
Its % inhibition of control enzyme activity is 8 % at 10 µM.

What about the % inhibition of control enzyme activity [3] of the same substance?
Its % inhibition of control enzyme activity is -22 % at 10 µM.

What about the % inhibition of control enzyme activity [4] of the same substance?
Its % inhibition of control enzyme activity is -4 % at 10 µM.

What about the % inhibition of control enzyme activity [5] of the same substance?
Its % inhibition of control enzyme activity is -37 % at 10 µM.

And the % inhibition of control enzyme activity [6]?
Its % inhibition of control enzyme activity is -4 % at 10 µM.

What about the Percentage inhibition (%) (% inhibition at 10 µM) [7] of the same substance?
The Percentage inhibition (%) (% inhibition at 10 µM) was -1.

And the Percentage inhibition (%) (% inhibition at 10 µM) [8]?
Its Percentage inhibition (%) (% inhibition at 10 µM) is 7.

And the Percentage inhibition (%) (% inhibition at 10 µM) [9]?
Its Percentage inhibition (%) (% inhibition at 10 µM) is -1.

And the Percentage inhibition (%) (% inhibition at 10 µM) [10]?
The Percentage inhibition (%) (% inhibition at 10 µM) was -3.

What about the Percentage inhibition (%) (% inhibition at 10 µM) [11] of the same substance?
The Percentage inhibition (%) (% inhibition at 10 µM) was -7.

What about the Percentage inhibition (%) (% inhibition at 10 µM) [12] of the same substance?
Its Percentage inhibition (%) (% inhibition at 10 µM) is -2.

What about the Percentage inhibition (%) (% inhibition at 10 µM) [13] of the same substance?
The Percentage inhibition (%) (% inhibition at 10 µM) was 2.

What about the Percentage inhibition (%) (% inhibition at 10 µM) [14] of the same substance?
Its Percentage inhibition (%) (% inhibition at 10 µM) is -6.

What about the Percentage inhibition (%) (% inhibition at 10 µM) [15] of the same substance?
The Percentage inhibition (%) (% inhibition at 10 µM) was -23.

And the Percentage inhibition (%) (% inhibition at 10 µM) [16]?
The Percentage inhibition (%) (% inhibition at 10 µM) was -7.

What about the Percentage inhibition (%) (% inhibition at 10 µM) [17] of the same substance?
The Percentage inhibition (%) (% inhibition at 10 µM) was -5.

What about the Percentage inhibition (%) (% inhibition at 10 µM) [18] of the same substance?
The Percentage inhibition (%) (% inhibition at 10 µM) was -2.

And the Percentage inhibition (%) (% inhibition at 10 µM) [19]?
Its Percentage inhibition (%) (% inhibition at 10 µM) is 0.

What about the Percentage inhibition (%) (% inhibition at 10 µM) [20] of the same substance?
Its Percentage inhibition (%) (% inhibition at 10 µM) is -1.

And the Percentage inhibition (%) (% inhibition at 10 µM) [21]?
Its Percentage inhibition (%) (% inhibition at 10 µM) is -2.

What about the Percentage inhibition (%) (% inhibition at 10 µM) [22] of the same substance?
The Percentage inhibition (%) (% inhibition at 10 µM) was -9.

And the Percentage inhibition (%) (% inhibition at 10 µM) [23]?
Its Percentage inhibition (%) (% inhibition at 10 µM) is 0.

And the Percentage inhibition (%) (% inhibition at 10 µM) [24]?
The Percentage inhibition (%) (% inhibition at 10 µM) was -40.

And the % Inhibition of Specific Binding [25]?
Its % Inhibition of Specific Binding is 5%.

And the % Inhibition of Specific Binding [26]?
Its % Inhibition of Specific Binding is 54%.

What about the % Inhibition of Specific Binding [27] of the same substance?
The % Inhibition of Specific Binding was 4%.

What about the % Inhibition of Specific Binding [28] of the same substance?
Its % Inhibition of Specific Binding is -25%.

And the % Inhibition of Specific Binding [29]?
The % Inhibition of Specific Binding was 1%.

What about the % Inhibition of Specific Binding [30] of the same substance?
Its % Inhibition of Specific Binding is 14%.

Which % inhibition of control enzyme activity [1] does the source give for “Hex-[Cys(tMeBn(DOTA-PP))-Pro-Pro-Thr-Gln-Phe-Cys]-Asp-NH2 (3BP-3407) (peptide)” here?
Its % inhibition of control enzyme activity is -6 % at 10 µM.

And the % inhibition of control enzyme activity [2]?
Its % inhibition of control enzyme activity is 10 % at 10 µM.

What about the % inhibition of control enzyme activity [3] of the same substance?
Its % inhibition of control enzyme activity is -14 % at 10 µM.

What about the % inhibition of control enzyme activity [4] of the same substance?
Its % inhibition of control enzyme activity is 10 % at 10 µM.

And the % inhibition of control enzyme activity [5]?
Its % inhibition of control enzyme activity is -3 % at 10 µM.

And the % inhibition of control enzyme activity [6]?
The % inhibition of control enzyme activity was -5 % at 10 µM.

What about the Percentage inhibition (%) (% inhibition at 10 µM) [7] of the same substance?
The Percentage inhibition (%) (% inhibition at 10 µM) was 10.

And the Percentage inhibition (%) (% inhibition at 10 µM) [8]?
Its Percentage inhibition (%) (% inhibition at 10 µM) is -5.

And the Percentage inhibition (%) (% inhibition at 10 µM) [9]?
The Percentage inhibition (%) (% inhibition at 10 µM) was -2.

And the Percentage inhibition (%) (% inhibition at 10 µM) [10]?
Its Percentage inhibition (%) (% inhibition at 10 µM) is -1.

What about the Percentage inhibition (%) (% inhibition at 10 µM) [11] of the same substance?
Its Percentage inhibition (%) (% inhibition at 10 µM) is -3.

What about the Percentage inhibition (%) (% inhibition at 10 µM) [12] of the same substance?
The Percentage inhibition (%) (% inhibition at 10 µM) was 8.

What about the Percentage inhibition (%) (% inhibition at 10 µM) [13] of the same substance?
The Percentage inhibition (%) (% inhibition at 10 µM) was 36.

And the Percentage inhibition (%) (% inhibition at 10 µM) [14]?
The Percentage inhibition (%) (% inhibition at 10 µM) was 6.

What about the Percentage inhibition (%) (% inhibition at 10 µM) [15] of the same substance?
The Percentage inhibition (%) (% inhibition at 10 µM) was 18.

What about the Percentage inhibition (%) (% inhibition at 10 µM) [16] of the same substance?
The Percentage inhibition (%) (% inhibition at 10 µM) was -3.

And the Percentage inhibition (%) (% inhibition at 10 µM) [17]?
Its Percentage inhibition (%) (% inhibition at 10 µM) is 0.

What about the Percentage inhibition (%) (% inhibition at 10 µM) [18] of the same substance?
Its Percentage inhibition (%) (% inhibition at 10 µM) is 3.

And the Percentage inhibition (%) (% inhibition at 10 µM) [19]?
The Percentage inhibition (%) (% inhibition at 10 µM) was 14.

And the Percentage inhibition (%) (% inhibition at 10 µM) [20]?
The Percentage inhibition (%) (% inhibition at 10 µM) was 5.

And the Percentage inhibition (%) (% inhibition at 10 µM) [21]?
Its Percentage inhibition (%) (% inhibition at 10 µM) is 46.

What about the Percentage inhibition (%) (% inhibition at 10 µM) [22] of the same substance?
Its Percentage inhibition (%) (% inhibition at 10 µM) is 5.

What about the Percentage inhibition (%) (% inhibition at 10 µM) [23] of the same substance?
Its Percentage inhibition (%) (% inhibition at 10 µM) is 5.

And the Percentage inhibition (%) (% inhibition at 10 µM) [24]?
Its Percentage inhibition (%) (% inhibition at 10 µM) is -2.

What about the % Inhibition of Specific Binding [25] of the same substance?
Its % Inhibition of Specific Binding is -9%.

And the % Inhibition of Specific Binding [26]?
The % Inhibition of Specific Binding was 42%.

What about the % Inhibition of Specific Binding [27] of the same substance?
The % Inhibition of Specific Binding was -5%.

And the % Inhibition of Specific Binding [28]?
Its % Inhibition of Specific Binding is -5%.

And the % Inhibition of Specific Binding [29]?
The % Inhibition of Specific Binding was 9%.

What about the % Inhibition of Specific Binding [30] of the same substance?
Its % Inhibition of Specific Binding is -7%.
